Data: publication PMC5255556, “mTORC1 phosphorylates LARP6 to stimulate type I collagen expression” (Scientific Reports, 2017)

What was measured:
[1] = target: T1, wt HA-LARP6 (La ribonucleoprotein domain family, member 6), full length (UniProt Q9BRS8 1-491); assay: co-IP; HLFs transduced with HA-LARP6 adenovirus; lysate in 50 mM Tris-HCl pH 7.5, 150 mM NaCl, 0.5% NP-40, 1 mM DTT; IP with anti-HA antibody 3 h at 4 °C, protein A/G-agarose, blot with anti-STRAP; cells untreated, treated with rapamycin, or with raptor knockdown (shRNA); details: partners not purified
T1 construct: LARP6 (La ribonucleoprotein domain family, member 6), full-length, re-cloned from pcDNA3 into pAd-CMV-Track; In cells the protein is a mixture of phosphorylated isoforms; The construct is described in earlier work of the authors; also called wt LARP6; FL HA-LARP6; source: HLFs (human lung fibroblasts), adenovirus-transduced, in lysate or in lysed microsomal fraction
T1 sequence (looked up): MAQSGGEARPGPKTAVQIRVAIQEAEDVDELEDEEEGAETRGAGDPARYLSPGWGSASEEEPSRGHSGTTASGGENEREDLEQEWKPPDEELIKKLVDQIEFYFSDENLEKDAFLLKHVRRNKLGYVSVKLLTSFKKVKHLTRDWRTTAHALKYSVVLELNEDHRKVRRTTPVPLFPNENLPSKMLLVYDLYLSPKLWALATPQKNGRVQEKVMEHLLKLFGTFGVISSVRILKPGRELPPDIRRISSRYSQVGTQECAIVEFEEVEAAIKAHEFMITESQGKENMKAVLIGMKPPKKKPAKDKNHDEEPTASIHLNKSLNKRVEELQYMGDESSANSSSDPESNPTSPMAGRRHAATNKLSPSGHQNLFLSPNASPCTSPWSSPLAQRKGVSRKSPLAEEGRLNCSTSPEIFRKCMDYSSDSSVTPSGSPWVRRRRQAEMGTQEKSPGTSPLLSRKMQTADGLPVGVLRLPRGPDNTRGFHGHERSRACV

[2] = target: T2, HA-LARP6 S348A/S409A mutant, full length (UniProt Q9BRS8 1-491, S348A | S409A); assay: as above; details: partners not purified
T2 construct: LARP6 (La ribonucleoprotein domain family, member 6), full-length, with S348A and S409A; Made by QuickChange site-directed mutagenesis; expressed from adenovirus; source: HLFs (human lung fibroblasts), adenovirus-transduced, in lysate or in lysed microsomal fraction
T2 sequence (looked up): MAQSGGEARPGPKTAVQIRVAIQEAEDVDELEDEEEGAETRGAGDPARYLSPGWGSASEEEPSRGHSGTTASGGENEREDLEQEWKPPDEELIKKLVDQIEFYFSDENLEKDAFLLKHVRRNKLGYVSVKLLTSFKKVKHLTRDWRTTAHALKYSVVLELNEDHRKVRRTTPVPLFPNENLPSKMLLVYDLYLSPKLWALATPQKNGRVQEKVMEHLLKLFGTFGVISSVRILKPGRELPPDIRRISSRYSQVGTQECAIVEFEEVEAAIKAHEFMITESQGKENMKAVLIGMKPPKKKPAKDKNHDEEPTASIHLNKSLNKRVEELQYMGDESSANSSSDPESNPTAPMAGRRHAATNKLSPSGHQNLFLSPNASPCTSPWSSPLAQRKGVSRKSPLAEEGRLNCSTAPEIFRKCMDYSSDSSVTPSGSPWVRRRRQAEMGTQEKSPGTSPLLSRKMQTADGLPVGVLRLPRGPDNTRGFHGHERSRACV

fraction of STRAP pulled down after rapamycin relative to untreated cells [1]: ~0.33 fraction of untreated
STRAP pulled down relative to wt HA-LARP6 [2]: ~50 % less than wt HA-LARP6
B1: serine-threonine kinase receptor-associated protein (STRAP) (natural protein, human (endogenous in HLFs), UniProt Q9Y3F4 1-350, looked up)
chain: MAMRQTPLTCSGHTRPVVDLAFSGITPYGYFLISACKDGKPMLRQGDTGDWIGTFLGHKGAVWGATLNKDATKAATAAADFTAKVWDAVSGDELMTLAHKHIVKTVDFTQDSNYLLTGGQDKLLRIYDLNKPEAEPKEISGHTSGIKKALWCSEDKQILSADDKTVRLWDHATMTEVKSLNFNMSVSSMEYIPEGEILVITYGRSIAFHSAVSLDPIKSFEAPATINSASLHPEKEFLVAGGEDFKLYKYDYNSGEELESYKGHFGPIHCVRFSPDGELYASGSEDGTLRLWQTVVGKTYGLWKCVLPEEDSGELAKPKIGFPETTEEELEEIASENSDCIFPSAPDVKA
notes: STRAP, serine-threonine kinase receptor-associated protein, endogenous in human lung fibroblasts, detected with anti-STRAP antibody; source: endogenous, HLF lysate
